Results on two substances are retold here after publication PMC7429481, “Signalling, trafficking and glucoregulatory properties of glucagon‐like peptide‐1 receptor agonists exendin‐4 and lixisenatide” (British Journal of Pharmacology, 2020).

The target in this assay is human SNAP‐GLP‐1 receptor (HEK293‐SNAP‐GLP‐1 receptor cells) (human) (UniProt P43220). Put plainly: FRET or BRET.
Sequence of human SNAP‐GLP‐1 receptor (HEK293‐SNAP‐GLP‐1 receptor cells) (human) (P43220 24-463): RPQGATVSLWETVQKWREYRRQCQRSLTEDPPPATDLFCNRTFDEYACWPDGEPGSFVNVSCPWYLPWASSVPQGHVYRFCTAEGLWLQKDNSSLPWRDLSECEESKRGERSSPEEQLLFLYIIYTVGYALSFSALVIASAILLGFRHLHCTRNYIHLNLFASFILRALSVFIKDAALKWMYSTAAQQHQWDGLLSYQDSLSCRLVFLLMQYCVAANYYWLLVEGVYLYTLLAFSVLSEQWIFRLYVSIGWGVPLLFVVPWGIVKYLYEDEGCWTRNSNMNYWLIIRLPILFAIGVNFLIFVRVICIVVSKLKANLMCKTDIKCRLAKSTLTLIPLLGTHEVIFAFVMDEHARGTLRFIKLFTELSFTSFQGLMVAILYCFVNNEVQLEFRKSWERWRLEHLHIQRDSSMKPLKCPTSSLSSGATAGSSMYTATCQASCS

Consider “exendin‐4 (from UniProt P26349 48-87) (peptide)”, for which the log KD is -9.2.

The substance lixisenatide (peptide) displayed a log KD of -9.
